# Data taken from patent publication US20210388087A1 (Chugai, published 2021).
# Molecular target: T1, Human CD137 ECD (human)
# T1 construct: entry includes C-terminal His-tag and biotin acceptor peptide; also called human CD137 extracellular domain; 4-1BB
# Assay: Biacore SPR, vs parent H183/L072
# T1 sequence (chain, as listed by the source limits assumed): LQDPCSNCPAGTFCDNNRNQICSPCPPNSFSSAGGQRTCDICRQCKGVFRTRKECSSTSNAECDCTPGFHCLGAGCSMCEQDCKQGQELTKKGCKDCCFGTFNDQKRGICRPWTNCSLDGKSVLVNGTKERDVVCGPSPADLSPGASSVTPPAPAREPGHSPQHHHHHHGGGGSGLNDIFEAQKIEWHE
row,fold change of affinity,Binder
1,0.2 fold,"H183/L072 VL N53I (antibody, name in Kabat numbering, V domains shown, Dual-Ig) VH: QVQLVESGGGLVQPGRSLRLSCAASGFTFSNAWMHWVRQAPGKGLEWVAQIKDKGNAYAAYYAPSVKGRFTISRDDSKNSIYLQMNSLKTEDTAVYYCHYVHYASASTVLPAFGVDAWGQGTTVTVSS VL: DIVMTQSPLSLPVTPGEPASISCQASQELVHMNRNTYLHWYQQKPGQAPRLLIYKVSIRFPGVPDRFSGSGSGTDFTLKISRVEAEDVGVYYCAQGTSVPFTFGQGTKLEIK"
2,0.2 fold,"H183/L072 VL N53K (antibody, name in Kabat numbering, V domains shown, Dual-Ig) VH: QVQLVESGGGLVQPGRSLRLSCAASGFTFSNAWMHWVRQAPGKGLEWVAQIKDKGNAYAAYYAPSVKGRFTISRDDSKNSIYLQMNSLKTEDTAVYYCHYVHYASASTVLPAFGVDAWGQGTTVTVSS VL: DIVMTQSPLSLPVTPGEPASISCQASQELVHMNRNTYLHWYQQKPGQAPRLLIYKVSKRFPGVPDRFSGSGSGTDFTLKISRVEAEDVGVYYCAQGTSVPFTFGQGTKLEIK"
3,0.2 fold,"H183/L072 VL N53L (antibody, name in Kabat numbering, V domains shown, Dual-Ig) VH: QVQLVESGGGLVQPGRSLRLSCAASGFTFSNAWMHWVRQAPGKGLEWVAQIKDKGNAYAAYYAPSVKGRFTISRDDSKNSIYLQMNSLKTEDTAVYYCHYVHYASASTVLPAFGVDAWGQGTTVTVSS VL: DIVMTQSPLSLPVTPGEPASISCQASQELVHMNRNTYLHWYQQKPGQAPRLLIYKVSLRFPGVPDRFSGSGSGTDFTLKISRVEAEDVGVYYCAQGTSVPFTFGQGTKLEIK"
4,0.1 fold,"H183/L072 VL N53M (antibody, name in Kabat numbering, V domains shown, Dual-Ig) VH: QVQLVESGGGLVQPGRSLRLSCAASGFTFSNAWMHWVRQAPGKGLEWVAQIKDKGNAYAAYYAPSVKGRFTISRDDSKNSIYLQMNSLKTEDTAVYYCHYVHYASASTVLPAFGVDAWGQGTTVTVSS VL: DIVMTQSPLSLPVTPGEPASISCQASQELVHMNRNTYLHWYQQKPGQAPRLLIYKVSMRFPGVPDRFSGSGSGTDFTLKISRVEAEDVGVYYCAQGTSVPFTFGQGTKLEIK"
5,0 fold,"H183/L072 VL N53P (antibody, name in Kabat numbering, V domains shown, Dual-Ig) VH: QVQLVESGGGLVQPGRSLRLSCAASGFTFSNAWMHWVRQAPGKGLEWVAQIKDKGNAYAAYYAPSVKGRFTISRDDSKNSIYLQMNSLKTEDTAVYYCHYVHYASASTVLPAFGVDAWGQGTTVTVSS VL: DIVMTQSPLSLPVTPGEPASISCQASQELVHMNRNTYLHWYQQKPGQAPRLLIYKVSPRFPGVPDRFSGSGSGTDFTLKISRVEAEDVGVYYCAQGTSVPFTFGQGTKLEIK"
6,0.4 fold,"H183/L072 VL N53Q (antibody, name in Kabat numbering, V domains shown, Dual-Ig) VH: QVQLVESGGGLVQPGRSLRLSCAASGFTFSNAWMHWVRQAPGKGLEWVAQIKDKGNAYAAYYAPSVKGRFTISRDDSKNSIYLQMNSLKTEDTAVYYCHYVHYASASTVLPAFGVDAWGQGTTVTVSS VL: DIVMTQSPLSLPVTPGEPASISCQASQELVHMNRNTYLHWYQQKPGQAPRLLIYKVSQRFPGVPDRFSGSGSGTDFTLKISRVEAEDVGVYYCAQGTSVPFTFGQGTKLEIK"
7,0.3 fold,"H183/L072 VL N53R (antibody, name in Kabat numbering, V domains shown, Dual-Ig) VH: QVQLVESGGGLVQPGRSLRLSCAASGFTFSNAWMHWVRQAPGKGLEWVAQIKDKGNAYAAYYAPSVKGRFTISRDDSKNSIYLQMNSLKTEDTAVYYCHYVHYASASTVLPAFGVDAWGQGTTVTVSS VL: DIVMTQSPLSLPVTPGEPASISCQASQELVHMNRNTYLHWYQQKPGQAPRLLIYKVSRRFPGVPDRFSGSGSGTDFTLKISRVEAEDVGVYYCAQGTSVPFTFGQGTKLEIK"
8,0.5 fold,"H183/L072 VL N53S (antibody, name in Kabat numbering, V domains shown, Dual-Ig) VH: QVQLVESGGGLVQPGRSLRLSCAASGFTFSNAWMHWVRQAPGKGLEWVAQIKDKGNAYAAYYAPSVKGRFTISRDDSKNSIYLQMNSLKTEDTAVYYCHYVHYASASTVLPAFGVDAWGQGTTVTVSS VL: DIVMTQSPLSLPVTPGEPASISCQASQELVHMNRNTYLHWYQQKPGQAPRLLIYKVSSRFPGVPDRFSGSGSGTDFTLKISRVEAEDVGVYYCAQGTSVPFTFGQGTKLEIK"
9,0 fold,"H183/L072 VL N53T (antibody, name in Kabat numbering, V domains shown, Dual-Ig) VH: QVQLVESGGGLVQPGRSLRLSCAASGFTFSNAWMHWVRQAPGKGLEWVAQIKDKGNAYAAYYAPSVKGRFTISRDDSKNSIYLQMNSLKTEDTAVYYCHYVHYASASTVLPAFGVDAWGQGTTVTVSS VL: DIVMTQSPLSLPVTPGEPASISCQASQELVHMNRNTYLHWYQQKPGQAPRLLIYKVSTRFPGVPDRFSGSGSGTDFTLKISRVEAEDVGVYYCAQGTSVPFTFGQGTKLEIK"
10,0.5 fold,"H183/L072 VL N53V (antibody, name in Kabat numbering, V domains shown, Dual-Ig) VH: QVQLVESGGGLVQPGRSLRLSCAASGFTFSNAWMHWVRQAPGKGLEWVAQIKDKGNAYAAYYAPSVKGRFTISRDDSKNSIYLQMNSLKTEDTAVYYCHYVHYASASTVLPAFGVDAWGQGTTVTVSS VL: DIVMTQSPLSLPVTPGEPASISCQASQELVHMNRNTYLHWYQQKPGQAPRLLIYKVSVRFPGVPDRFSGSGSGTDFTLKISRVEAEDVGVYYCAQGTSVPFTFGQGTKLEIK"
11,0 fold,"H183/L072 VL N53W (antibody, name in Kabat numbering, V domains shown, Dual-Ig) VH: QVQLVESGGGLVQPGRSLRLSCAASGFTFSNAWMHWVRQAPGKGLEWVAQIKDKGNAYAAYYAPSVKGRFTISRDDSKNSIYLQMNSLKTEDTAVYYCHYVHYASASTVLPAFGVDAWGQGTTVTVSS VL: DIVMTQSPLSLPVTPGEPASISCQASQELVHMNRNTYLHWYQQKPGQAPRLLIYKVSWRFPGVPDRFSGSGSGTDFTLKISRVEAEDVGVYYCAQGTSVPFTFGQGTKLEIK"
12,0.1 fold,"H183/L072 VL P56A (antibody, name in Kabat numbering, V domains shown, Dual-Ig) VH: QVQLVESGGGLVQPGRSLRLSCAASGFTFSNAWMHWVRQAPGKGLEWVAQIKDKGNAYAAYYAPSVKGRFTISRDDSKNSIYLQMNSLKTEDTAVYYCHYVHYASASTVLPAFGVDAWGQGTTVTVSS VL: DIVMTQSPLSLPVTPGEPASISCQASQELVHMNRNTYLHWYQQKPGQAPRLLIYKVSNRFAGVPDRFSGSGSGTDFTLKISRVEAEDVGVYYCAQGTSVPFTFGQGTKLEIK"
13,0.2 fold,"H183/L072 VL P56D (antibody, name in Kabat numbering, V domains shown, Dual-Ig) VH: QVQLVESGGGLVQPGRSLRLSCAASGFTFSNAWMHWVRQAPGKGLEWVAQIKDKGNAYAAYYAPSVKGRFTISRDDSKNSIYLQMNSLKTEDTAVYYCHYVHYASASTVLPAFGVDAWGQGTTVTVSS VL: DIVMTQSPLSLPVTPGEPASISCQASQELVHMNRNTYLHWYQQKPGQAPRLLIYKVSNRFDGVPDRFSGSGSGTDFTLKISRVEAEDVGVYYCAQGTSVPFTFGQGTKLEIK"
14,0.1 fold,"H183/L072 VL P56E (antibody, name in Kabat numbering, V domains shown, Dual-Ig) VH: QVQLVESGGGLVQPGRSLRLSCAASGFTFSNAWMHWVRQAPGKGLEWVAQIKDKGNAYAAYYAPSVKGRFTISRDDSKNSIYLQMNSLKTEDTAVYYCHYVHYASASTVLPAFGVDAWGQGTTVTVSS VL: DIVMTQSPLSLPVTPGEPASISCQASQELVHMNRNTYLHWYQQKPGQAPRLLIYKVSNRFEGVPDRFSGSGSGTDFTLKISRVEAEDVGVYYCAQGTSVPFTFGQGTKLEIK"
15,0 fold,"H183/L072 VL P56F (antibody, name in Kabat numbering, V domains shown, Dual-Ig) VH: QVQLVESGGGLVQPGRSLRLSCAASGFTFSNAWMHWVRQAPGKGLEWVAQIKDKGNAYAAYYAPSVKGRFTISRDDSKNSIYLQMNSLKTEDTAVYYCHYVHYASASTVLPAFGVDAWGQGTTVTVSS VL: DIVMTQSPLSLPVTPGEPASISCQASQELVHMNRNTYLHWYQQKPGQAPRLLIYKVSNRFFGVPDRFSGSGSGTDFTLKISRVEAEDVGVYYCAQGTSVPFTFGQGTKLEIK"
16,0.1 fold,"H183/L072 VL P56G (antibody, name in Kabat numbering, V domains shown, Dual-Ig) VH: QVQLVESGGGLVQPGRSLRLSCAASGFTFSNAWMHWVRQAPGKGLEWVAQIKDKGNAYAAYYAPSVKGRFTISRDDSKNSIYLQMNSLKTEDTAVYYCHYVHYASASTVLPAFGVDAWGQGTTVTVSS VL: DIVMTQSPLSLPVTPGEPASISCQASQELVHMNRNTYLHWYQQKPGQAPRLLIYKVSNRFGGVPDRFSGSGSGTDFTLKISRVEAEDVGVYYCAQGTSVPFTFGQGTKLEIK"
17,0 fold,"H183/L072 VL P56H (antibody, name in Kabat numbering, V domains shown, Dual-Ig) VH: QVQLVESGGGLVQPGRSLRLSCAASGFTFSNAWMHWVRQAPGKGLEWVAQIKDKGNAYAAYYAPSVKGRFTISRDDSKNSIYLQMNSLKTEDTAVYYCHYVHYASASTVLPAFGVDAWGQGTTVTVSS VL: DIVMTQSPLSLPVTPGEPASISCQASQELVHMNRNTYLHWYQQKPGQAPRLLIYKVSNRFHGVPDRFSGSGSGTDFTLKISRVEAEDVGVYYCAQGTSVPFTFGQGTKLEIK"
18,0.1 fold,"H183/L072 VL P56I (antibody, name in Kabat numbering, V domains shown, Dual-Ig) VH: QVQLVESGGGLVQPGRSLRLSCAASGFTFSNAWMHWVRQAPGKGLEWVAQIKDKGNAYAAYYAPSVKGRFTISRDDSKNSIYLQMNSLKTEDTAVYYCHYVHYASASTVLPAFGVDAWGQGTTVTVSS VL: DIVMTQSPLSLPVTPGEPASISCQASQELVHMNRNTYLHWYQQKPGQAPRLLIYKVSNRFIGVPDRFSGSGSGTDFTLKISRVEAEDVGVYYCAQGTSVPFTFGQGTKLEIK"
19,0 fold,"H183/L072 VL P56K (antibody, name in Kabat numbering, V domains shown, Dual-Ig) VH: QVQLVESGGGLVQPGRSLRLSCAASGFTFSNAWMHWVRQAPGKGLEWVAQIKDKGNAYAAYYAPSVKGRFTISRDDSKNSIYLQMNSLKTEDTAVYYCHYVHYASASTVLPAFGVDAWGQGTTVTVSS VL: DIVMTQSPLSLPVTPGEPASISCQASQELVHMNRNTYLHWYQQKPGQAPRLLIYKVSNRFKGVPDRFSGSGSGTDFTLKISRVEAEDVGVYYCAQGTSVPFTFGQGTKLEIK"
20,0.1 fold,"H183/L072 VL P56L (antibody, name in Kabat numbering, V domains shown, Dual-Ig) VH: QVQLVESGGGLVQPGRSLRLSCAASGFTFSNAWMHWVRQAPGKGLEWVAQIKDKGNAYAAYYAPSVKGRFTISRDDSKNSIYLQMNSLKTEDTAVYYCHYVHYASASTVLPAFGVDAWGQGTTVTVSS VL: DIVMTQSPLSLPVTPGEPASISCQASQELVHMNRNTYLHWYQQKPGQAPRLLIYKVSNRFLGVPDRFSGSGSGTDFTLKISRVEAEDVGVYYCAQGTSVPFTFGQGTKLEIK"
21,0.2 fold,"H183/L072 VL P56M (antibody, name in Kabat numbering, V domains shown, Dual-Ig) VH: QVQLVESGGGLVQPGRSLRLSCAASGFTFSNAWMHWVRQAPGKGLEWVAQIKDKGNAYAAYYAPSVKGRFTISRDDSKNSIYLQMNSLKTEDTAVYYCHYVHYASASTVLPAFGVDAWGQGTTVTVSS VL: DIVMTQSPLSLPVTPGEPASISCQASQELVHMNRNTYLHWYQQKPGQAPRLLIYKVSNRFMGVPDRFSGSGSGTDFTLKISRVEAEDVGVYYCAQGTSVPFTFGQGTKLEIK"
